Laboratory results as given in the supplement of paper PMC10126150.
± gives the standard deviation of the averaged measurements.

tested on: ATP; assay: switch fluorescence ratio, 500 uM ATP over buffer (Cy3 cluster intensity, sum of 5 cycles each) (fold (ratio)); higher = stronger signal-on switching upon ATP binding; sequences stand for … in TCGTCGGCAGCGTCAGATGTGTATAAGAGACAGTTTTTTTTTTTTTTTTTTTTTTTTT…TC; conditions: aptamer strand: ATP DNA aptamer (quencher-CACCTGGGGGAGTATTGCGGAGGAAGG + anchor), 100 nM annealed; ATP concentration: 500 uM
In short: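 Cy3-labelled switching-strand clusters on a modified Illumina MiSeq flow-cell were annealed to 100 nM quencher-labelled ATP aptamer and imaged first in selection buffer, then after 15 min with 500 uM ATP at 22 °C. NaOH stripping and re-annealing separated each of five buffer/ATP cycles, and clusters outside 100-1000 RFU were excluded. The fluorescence ratio sums target-cycle Cy3 intensity over buffer-cycle Cy3 intensity per cluster and averages it per switch-domain sequence.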
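Also: ATP exposure 15 min at 22 °C before imaging.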

CTATGAATTA and AGGTCGGGTA are within error of each other in switch fluorescence ratio: 0.984 ± 0.024 for the first, 0.979 ± 0.038 for the second.

ATGGGAAATC and TTAGAGGACT are within error of each other in switch fluorescence ratio: 0.9978 ± 0.0044 for the first, 1.01 ± 0.025 for the second.

ATAGGATCGC and ATTGGGTTAG are within error of each other in switch fluorescence ratio: 0.99 ± 0.039 for the first, 0.975 ± 0.032 for the second.

GGGGGTCTTA and AGGAGCTAGT are within error of each other in switch fluorescence ratio: 0.9974 ± 0.0063 for the first, 1.01 ± 0.038 for the second.

TGGAGAATTT and GGTTAGGGGT are within error of each other in switch fluorescence ratio: 1.02 ± 0.044 for the first, 1.08 ± 0.24 for the second.

ATGGTTCCCC and TTGGTACTGT are within error of each other in switch fluorescence ratio: 1.03 ± 0.013 for the first, 1.02 ± 0.014 for the second.

TTTATATGCG and CAGGTCAGGT are within error of each other in switch fluorescence ratio: 1 ± 0.027 for the first, 1.01 ± 0.045 for the second.

Going from ATAGGATATA to ATTAGAAATG, the switch fluorescence ratio falls from 1.03 ± 0.018 to 0.9973 ± 0.0062.

First: TGATTTAAGT
Second: TTTACGGAAC
The switch fluorescence ratio of the first is lower: 0.992 ± 0.05 for the first, 1.244 ± 0.0059 for the second.

Going from CGTAAAGGGA to TTGTAAATTT, the switch fluorescence ratio rises from 0.987 ± 0.013 to 1.012 ± 0.01.

TACTTAGTGG and ATGCCGGGTG are within error of each other in switch fluorescence ratio: 1.02 ± 0.017 for the first, 1.07 ± 0.047 for the second.

First: CAGTTCATTA
Second: TTTGCCGGCG
The switch fluorescence ratio of the first is higher: 0.9976 ± 0.0031 for the first, 0.97337 ± 0.00069 for the second.

TTGAGGTGGG and TCAGACTTTG are within error of each other in switch fluorescence ratio: 1.23 ± 0.41 for the first, 0.978 ± 0.022 for the second.

CTACTGTGGG and GGGATGGGTT are within error of each other in switch fluorescence ratio: 0.9651 ± 0.006 for the first, 0.989 ± 0.025 for the second.

First: TACCTCACTA
Second: GGTGTGGCTA
The switch fluorescence ratio of the first is higher: 1.42 ± 0.17 for the first, 0.989 ± 0.012 for the second.

First: CGGTTGGCCA
Second: GACCTTTCGT
The switch fluorescence ratio of the first is lower: 1 ± 0.018 for the first, 1.1 ± 0.069 for the second.

TTTTTTGTTA and CGGTGAGTAG are within error of each other in switch fluorescence ratio: 1 ± 0.024 for the first, 0.9876 ± 0.0092 for the second.

GATTTTTACT and ACCTGGCCTG are within error of each other in switch fluorescence ratio: 1.02 ± 0.024 for the first, 0.999 ± 0.021 for the second.

TGATTATAGG and CCGTATCCCT are within error of each other in switch fluorescence ratio: 0.992 ± 0.01 for the first, 1.03 ± 0.043 for the second.

GGCAGGGACT and TTGGGGACCC are within error of each other in switch fluorescence ratio: 1 ± 0.033 for the first, 1.03 ± 0.035 for the second.

Going from CGGGGGGGAA to GCCTCAGGGT, the switch fluorescence ratio rises from 0.999 ± 0.03 to 1.08 ± 0.02.

TTGCGGTGCG and CCCGGTTTTT are within error of each other in switch fluorescence ratio: 1.01 ± 0.062 for the first, 1.06 ± 0.022 for the second.

CCGATGGGGG and ATATTCTTGG are within error of each other in switch fluorescence ratio: 1.01 ± 0.025 for the first, 0.9852 ± 0.0026 for the second.

AACATGCGCA and GATTGGGTTG are within error of each other in switch fluorescence ratio: 0.9712 ± 0.0047 for the first, 0.981 ± 0.045 for the second.

Compared with TTTCTACTCG, TCATGCGTAA is higher in switch fluorescence ratio: 0.995 ± 0.017 for the first, 2.03 ± 0.069 for the second.

Compared with ATAATTTTAC, AGGAAGGGGT is lower in switch fluorescence ratio: 1.07 ± 0.041 for the first, 0.979 ± 0.033 for the second.

TCATTCGGGG and TTGGTGGTCT are within error of each other in switch fluorescence ratio: 0.973 ± 0.016 for the first, 1.05 ± 0.075 for the second.

TGGGAGGAGT and GACTGTGAGA are the same in switch fluorescence ratio: 1 ± 0.048 for the first, 1 ± 0.034 for the second.

ATTAAGGTAG and TTCTGGTGCA are within error of each other in switch fluorescence ratio: 1 ± 0.014 for the first, 1.02 ± 0.047 for the second.

TGACTTGTGC and AGACTAGTCG are within error of each other in switch fluorescence ratio: 0.976 ± 0.037 for the first, 0.972 ± 0.047 for the second.

First: AAGCAGTTAC
Second: TGGGTTTGCT
The switch fluorescence ratio of the first is higher: 3.41 ± 0.3 for the first, 1.001 ± 0.0063 for the second.

TGTCTCGCCC and CTGATAAAGT are within error of each other in switch fluorescence ratio: 1.02 ± 0.024 for the first, 0.9922 ± 0.0082 for the second.

TATAAAGCAG and AGTGAAAATT are within error of each other in switch fluorescence ratio: 1.03 ± 0.024 for the first, 1 ± 0.038 for the second.

GGAGTGGTTC and GGGTGTAGTT are the same in switch fluorescence ratio: 0.999 ± 0.013 for the first, 0.999 ± 0.036 for the second.

GGGTGAGTAG and GACGTGTTG are within error of each other in switch fluorescence ratio: 1.02 ± 0.067 for the first, 1.01 ± 0.025 for the second.

GAGTTATATT and TGGGGACCGT are within error of each other in switch fluorescence ratio: 0.985 ± 0.025 for the first, 1 ± 0.03 for the second.

TTCTCGGCTA and TTTTACTCCG are within error of each other in switch fluorescence ratio: 1.56 ± 0.61 for the first, 3.1 ± 1.9 for the second.

TTTGGGACTT and TTTGCCTT are within error of each other in switch fluorescence ratio: 1.01 ± 0.035 for the first, 1.06 ± 0.051 for the second.

TGTTTCTACG and AGGGGGCGTT are within error of each other in switch fluorescence ratio: 1 ± 0.056 for the first, 1.02 ± 0.042 for the second.

CATGATTTGG and AAACATTTTG are within error of each other in switch fluorescence ratio: 0.982 ± 0.028 for the first, 1.02 ± 0.036 for the second.

ACGGGCGGCG and GGGGTATCCA are within error of each other in switch fluorescence ratio: 0.979 ± 0.047 for the first, 1.03 ± 0.03 for the second.

ACGTTCTATA and AGAGATTACG are within error of each other in switch fluorescence ratio: 1.026 ± 0.0088 for the first, 1.02 ± 0.034 for the second.

TTGCATGAGG and GATGGGGGAT are the same in switch fluorescence ratio: 1.01 ± 0.078 for the first, 1.01 ± 0.028 for the second.

TTTTTGGGGG and TCCTGTGGGT are within error of each other in switch fluorescence ratio: 0.997 ± 0.035 for the first, 0.99 ± 0.036 for the second.

First: AGAAATACGG
Second: TGTTCGAGGG
The switch fluorescence ratio of the first is higher: 1.21 ± 0.063 for the first, 1.02 ± 0.059 for the second.

CCGGGTTGGG and GTTGTTGTCG are within error of each other in switch fluorescence ratio: 1.02 ± 0.036 for the first, 0.974 ± 0.1 for the second.

First: GGTTCTGTGG
Second: ATGGAGCGTG
The switch fluorescence ratio of the first is higher: 1.03 ± 0.0094 for the first, 0.994 ± 0.018 for the second.

GAATTTTCG and AAAGGGGAGG are the same in switch fluorescence ratio: 1.009 ± 0.0097 for the first, 1.01 ± 0.033 for the second.

TTAAAAAGG and TAGTAAATGG are within error of each other in switch fluorescence ratio: 1.02 ± 0.037 for the first, 0.999 ± 0.017 for the second.

GGGAAGAAAT and CGTTGTTAGT are within error of each other in switch fluorescence ratio: 1 ± 0.037 for the first, 1.037 ± 0.0083 for the second.

TCAGGGGCAG and GTTGAAGGGA are within error of each other in switch fluorescence ratio: 1.06 ± 0.081 for the first, 0.983 ± 0.018 for the second.

TTCGCAACGG and TTGTCGTCAC are within error of each other in switch fluorescence ratio: 1.22 ± 0.34 for the first, 1.01 ± 0.037 for the second.

AGATTGGGTT and TGAGAGTTTG are within error of each other in switch fluorescence ratio: 0.967 ± 0.024 for the first, 0.987 ± 0.017 for the second.

TACTCAGGTT and AATAGGGAGC are within error of each other in switch fluorescence ratio: 2.25 ± 1.8 for the first, 0.997 ± 0.041 for the second.

Compared with TAAAATCCGT, GTAATATTAA is higher in switch fluorescence ratio: 0.981 ± 0.011 for the first, 1.0073 ± 0.00065 for the second.

GCTGCGGGG and AGTGGAGTCA are within error of each other in switch fluorescence ratio: 1.01 ± 0.053 for the first, 1.02 ± 0.035 for the second.

GCAAATATTG and TATTATCTTT are the same in switch fluorescence ratio: 1.01 ± 0.018 for the first, 1.01 ± 0.024 for the second.

CTGTTGGGCC and GGGTTGGCTG are within error of each other in switch fluorescence ratio: 0.9949 ± 0.0047 for the first, 0.989 ± 0.048 for the second.

GCTTTTTCCA and CTCGGGGGCT are within error of each other in switch fluorescence ratio: 0.975 ± 0.035 for the first, 0.98 ± 0.027 for the second.

TTTGAGCTGT and TACCGGGGAG are the same in switch fluorescence ratio: 1.02 ± 0.042 for the first, 1.021 ± 0.0045 for the second.

TTTGTGGGG and TATATAGGTA are within error of each other in switch fluorescence ratio: 0.978 ± 0.023 for the first, 1.01 ± 0.043 for the second.

TGGCGCCGGG and GTTTAGAGGA are within error of each other in switch fluorescence ratio: 0.9958 ± 0.0091 for the first, 1 ± 0.025 for the second.

TTTTCTTCTT and CGAAGGGGAA are within error of each other in switch fluorescence ratio: 1.02 ± 0.068 for the first, 1.03 ± 0.099 for the second.

TCCAAACCAG and TTCGGGAATA are within error of each other in switch fluorescence ratio: 1.06 ± 0.012 for the first, 1.03 ± 0.022 for the second.

First: CAGATGTGGC
Second: GAAGAATGTG
The switch fluorescence ratio of the first is lower: 0.927 ± 0.037 for the first, 1.01 ± 0.0082 for the second.

TTACATTGAG and GATTTTCACT are within error of each other in switch fluorescence ratio: 0.976 ± 0.015 for the first, 0.9903 ± 0.0092 for the second.

TTAGCCTAGT and AAGTTTTGCA are within error of each other in switch fluorescence ratio: 0.965 ± 0.037 for the first, 1.007 ± 0.0091 for the second.

GTTACAATGG and ATTAGTTATT are within error of each other in switch fluorescence ratio: 0.991 ± 0.038 for the first, 1.02 ± 0.015 for the second.

GGGGGCCGTT and AGGTTGGCTT are within error of each other in switch fluorescence ratio: 0.977 ± 0.058 for the first, 0.96006 ± 0.0007 for the second.

TTTGCTTAGG and CCTAGGGTTA are within error of each other in switch fluorescence ratio: 0.993 ± 0.037 for the first, 1.01 ± 0.074 for the second.

AACGATTGGG and GGTGTTTCGG are within error of each other in switch fluorescence ratio: 0.948 ± 0.027 for the first, 0.966 ± 0.014 for the second.

TAAGTAAAAT and TGTTTTAATT are within error of each other in switch fluorescence ratio: 0.9968 ± 0.0089 for the first, 0.99 ± 0.021 for the second.

AAGCTACGGC and GGGGGATAGA are within error of each other in switch fluorescence ratio: 1.02 ± 0.019 for the first, 1.03 ± 0.034 for the second.

TTCAGTTTGG and TTTGAAGGTA are the same in switch fluorescence ratio: 1.01 ± 0.038 for the first, 1.01 ± 0.025 for the second.

Going from CGTTACTCCG to GTGTTGCGGC, the switch fluorescence ratio falls from 1.5 ± 0.16 to 0.986 ± 0.016.

TATTCTCATG and TTTAATATAT are within error of each other in switch fluorescence ratio: 1 ± 0.047 for the first, 1.02 ± 0.031 for the second.

In the case of AGGGGGGATA, the switch fluorescence ratio is reported as 1.02 ± 0.074.
